Measured values taken from patent publication US11547721B2, “Magnetic nanoparticles for use in the treatment of tumors” (CONSIGLIO NAZIONALE DELLE RICERCHE, priority 2018, dated 2023).

Tests used:
[1] = test system: IGROV-1 cells; assay: Cytotoxicity, cell viability assay with Presto blue; type: cell-based
Method: Cytotoxicity studies have been conducted to confirm the activity of the platinum-based chemotherapeutic agent attached to the nanocubes. IGROV-1 cells were incubated with nanocubes functionalized with oxaliplatin and antibody (in FIG. 3a indicated as NCs_OHP_C4) for 24, 48 and 72 hours at Fe concentration equal to 0.05 g/L, 0.1 g/L and 0.15 g/L, corresponding to 1.3, 2.6 and 3.9 μM of oxaliplatin chemotherapeutic agent. Cell viability has been verified in an assay with Presto blue. […] The toxicity of the chemotherapeutic agent alone was administered, administered to the cells for 24 hours, 48 hours and 72 hours at the concentration of oxaliplatin corresponding to the same quantity loaded on the nanocubes. […] It is also important to note that in these experiments the control consisted of nanocubes with polymeric coating, functionalised with PEG-NTA-C4, but lacking oxaliplatin, prepared as described above.
Cytotoxicity data were also collected for longer-time treatments, to verify the toxicity of oxaliplatin loaded on the nanocubes according to the invention over extended periods of time. In fact, since the action of platinum-based chemotherapy drugs involves their interleaving within the cell's DNA, the adverse effects of treatment with these drugs should be more evident at longer times after exposure to the drug. Then, after exposure of the IGROV-1 cells to the nanocubes functionalized with antibody and drug for 24, 48 and 72 hours of treatment respectively, the supernatant was removed and the cells were kept in a fresh culture medium for a further 24, 48 or 72 hours. The viability of these cells was verified by analysis with blue Presto immediately after direct exposure to the nanocubes and at 24, 48 and 72 hours after incubation.

[2] = test system: IGROV-1 cells; assay: Hyperthermia combined with release of chemotherapeutic agent, viability with Presto blue; type: cell-based; settings: for cell viability at 24 hours / cell viability at 48 hours / cell viability at 120 hours: with hyperthermia (2 x 30 min, 42° C., 27 kA m^−1, 182 kHz), 5.5 g Fe/L
Method: Hyperthermia experiments were conducted on cells treated with the invention's nanocubes to monitor the efficiency of nanoparticles in killing tumor cells with heat and improving the toxicity mediated by oxaliplatin. In practice, 3×10^6 IGROV-1 cells were incubated with 5.5 g of Fe/L of invention nanocubes functionalized with oxaliplatin and NCs-PEG-Pt-C4 antibody fragment, and exposed to a magnetic field of 27 kA m^−1 at frequency of 182 kHz, so as not to exceed the biological limit (Hf=5×10^9 A m^−1 s^−1). Two consecutive 30-minutes hyperthermia treatments were then performed, each with a maximum temperature reached in these conditions of 42° C. Also included in this study were: untreated cells, cells incubated with nanocubes functionalized only with antibody without oxaliplatin (exposed and not exposed to hyperthermia), and cells incubated with nanocubes functionalized with antibody and oxaliplatin not exposed to hyperthermia. A control experiment was also performed by incubating the cells with free oxaliplatin at the same amount of platinum loaded on the nanocubes (28 μg of platinum, corresponding to 140 μM of oxaliplatin).
After the hyperthermal treatment, the cells were washed to remove excess nanocubes present and re-seeded in a fresh culture medium (5×10^4 cells per well for each cell sample), so as to monitor their vitality at 24, 48 and 120 hours after treatment, with an assay with blue Presto. […] After 120 hours, the combined and concomitant action of hyperthermia and release of the chemotherapeutic agent made the cells unable to recover their growth (vitality of about 40% at 120 hours).

[3] = test system: A431-MOCK cells (do not express the folate receptor); assay: Flow cytometry (FACS) binding of nanocubes to cells; type: cell-based; settings: 0.025 mg/mL antibody fragment, PBS, 4° C., 1 hour
Method: (§1) The A431-tFR and A431-MOCK cells provided by the IRCSS Foundation, National Cancer Institute, Milan, Italy, were grown in the modified Dulbecco culture medium (DMEM, Merck, Kenilworth, USA). IGROV-1 cells (ATCC, UK) were cultured in RPMI-1640 (RPMI-1640, Merck, Kenilworth, USA). The KB cells (ATCC, UK) were cultured in RPMI-1640 without folic acid (RPMI-1640 without folic acid, Merck, Kenilworth, USA). All culture media were added with 10% inactivated fetal bovine serum (FBS), 1% penicillin-streptomycin and 1% glutamine at 37° C., 95% humidity with 5% CO2. The cells were divided every 3-4 days before reaching confluence. In these experiments, the functionalized nanocubes of the invention comprising the antibody fragment in a quantity of 0.025 mg/mL were incubated in PBS at 4° C. for 1 hour with 5×10^5 cells of the cell lines indicated above. As a negative control, the non-functionalised nanocubes with polymer coating were used. Then, after three washes, the cells were incubated for 1 hour at 4° C. with the primary antibody that binds to the myc sequence of the C4 antibody fragment. Following a wash in PBS a secondary antibody conjugated to the fluorescent probe Alexa-488 was added to the cells, capable of binding the Fc portion of the primary antibody.

[4] = test system: A431-tFR cells (A431 transfected with folate receptor gene α-FR); assay: as above; type: cell-based; settings: 0.025 mg/mL antibody fragment, PBS, 4° C., 1 hour
Method: as §1

[5] = test system: IGROV-1 cells (high natural expression of folate receptors); assay: as above; type: cell-based; settings: 0.025 mg/mL antibody fragment, PBS, 4° C., 1 hour
Method: as §1

[6] = test system: KB cells (high natural expression of folate receptors); assay: as above; type: cell-based; settings: 0.025 mg/mL antibody fragment, PBS, 4° C., 1 hour
Method: as §1

[7] = test system: IGROV-1 cells; assay: Confocal laser scanning microscopy (CLSM) of nanocube internalization; type: cell-based
[8] = Release of platinum from nanocubes in citrate buffer at different pH; type: physicochemical; settings: pH 5.5, 5 and 4.5
Text: Firstly, in a test tube, the release of platinum from the citrated buffer nanocubes at different pH was verified, according to the expected acidity values for endosomes, late endosomes and lysosomes (pH=5.5, 5 and 4.5 respectively). It has thus been verified that the release of platinum is pH dependent and that the maximum amount of platinum released is obtained at the lowest pH, i.e. at pH 4.5, which corresponds to the pH of the lysosomal environment.

[9] = test system: IGROV-1 cells; assay: Comet assay for DNA cross-linking; type: cell-based; settings: 24, 48, 72 hours incubation, then H2O2
Method: Furthermore, once released from the nanocubes, platinum must be incorporated into the cell nuclei and must form crosslinks with the DNA. In fact, its toxicity depends on the impossibility for cells to replicate and transcribe their genetic makeup due to the presence of platinum-DNA complexes. Thus, to evaluate the presence of cross-linking in the DNA of cells treated with nanocubes, a Comet assay was performed, whose results are illustrated in the images in FIG. 7, acquired with a confocal microscope. In this experiment, the cell samples examined of IGROV-1 cells were incubated with the nanocubes with antibody but without platinum (in FIG. 7 indicated as NCs_C4) and with the nanocubes of the invention with antibody and oxaliplatin (indicated in the figure as NCs_OHP_C4) for 24, 48 and 72 hours, so they were treated with H2O2 hydrogen peroxide. As a control, IGROV-1 cells were used, treated with the same nanocubes, with and without platinum, but without treatment with hydrogen peroxide.
The toxicity observed in the cells following treatment with functionalized nanocubes of the invention, we can conclude that it results from the combined effects of hyperthermia and toxicity induced by the platinum-based drug.

[10] = 24, 48 and 72 hours, oxaliplatin amount or nanocube concentration as for loaded nanocubes

Molecule: O=C1[O][Pt]2([NH][C@@H]3CCCC[C@H]3[NH]2)[O]C1=O [oxaliplatin, reference compound]
- toxicity (cell viability, Presto blue) [1, 10]: moderate toxicity
- cell viability after treatment ([2]; free drug, 140 μM oxaliplatin (28 μg platinum), 24, 48, 120 hours): slightly affected

B1: NCs-PEG-Pt-scFv (conjugate)
scFv: NVQLVESGGGLVQPGRSLRLSCTTSGFTFGDYAMIWARQAPGKGLEWVSSISSSSSYIYYADSVKGRFTISRDNAKNSLYLQMNSLRAEDTAVYYCARERYDFWSGMDVWGKGTTVTVSSGGGGSGGGGSGGSAQSALTQPASVSGSPGQSITISCTGTSSDVGSYNLVSWYQQHPGKAPKLMIYEGSKRPSGVSNRFSGSKSGNAASLTISGLQAEDEADYYCQSYDSSLSVVFGGGTKLTVLGAAAHHHHHHGAAEQ
- nanocube binding to cells (fluorescence intensity vs. cell count) [3]: no binding was found
- nanocube binding to cells (fluorescence intensity vs. cell count) [4]: nanocube binding was demonstrated
- nanocube binding to cells (fluorescence intensity vs. cell count) [5]: nanocube binding was demonstrated
- nanocube binding to cells (fluorescence intensity vs. cell count) [6]: nanocube binding was demonstrated
- cell viability post-incubation (p.i.) ([1]; 24 hours of treatment, then fresh medium 24, 48, 72 hours): decreases after 24 hours of treatment (post-incubation, p.i.) for the next 24 hours and then goes up again after 48 and 72 hours post-incubation
- toxicity (cell viability, Presto blue) ([1]; 48 hours incubation, Fe 0.05, 0.1, 0.15 g/L = 1.3, 2.6, 3.9 μM oxaliplatin): Serious toxicity
- cell viability post-incubation (p.i.) ([1]; 48 hours of treatment, then fresh medium up to 72 hours): decreases again for the next 72 hours
- toxicity (cell viability, Presto blue) ([1]; 72 hours incubation vs 48 hours, Fe 0.05, 0.1, 0.15 g/L = 1.3, 2.6, 3.9 μM oxaliplatin): increased
- cell viability at 24 hours [2]: significantly modified cell viability
- cell viability at 48 hours [2]: further compromised
- cell viability at 120 hours [2]: about 40%
- localization of nanocubes in cells ([7]; 2 hours incubation at 37° C.): most of the nanocubes were located at the cell membrane
- localization of nanocubes in cells ([7]; 4 hours incubation at 37° C.): progressive internalization
- localization of nanocubes in cells ([7]; 12 hours incubation at 37° C.): complete internalization
- pH of maximum amount of platinum released [8]: 4.5
- release of platinum [8]: pH dependent
- DNA trace in Comet assay [9]: progressive delay in migration reaching a maximum after 72 hours

B2: NCs_scFv (conjugate)
scFv: NVQLVESGGGLVQPGRSLRLSCTTSGFTFGDYAMIWARQAPGKGLEWVSSISSSSSYIYYADSVKGRFTISRDNAKNSLYLQMNSLRAEDTAVYYCARERYDFWSGMDVWGKGTTVTVSSGGGGSGGGGSGGSAQSALTQPASVSGSPGQSITISCTGTSSDVGSYNLVSWYQQHPGKAPKLMIYEGSKRPSGVSNRFSGSKSGNAASLTISGLQAEDEADYYCQSYDSSLSVVFGGGTKLTVLGAAAHHHHHHGAAEQ
- toxicity (cell viability, Presto blue) [1, 10]: no toxicity
- cell viability at 24 hours [2]: significantly modified cell viability
- cell viability at 48 hours [2]: began to show a recovery
- cell viability at 120 hours [2]: 95%
- DNA trace in Comet assay [9]: traces of extensive damage
